According to patent US20240067734A1 (Hoffmann-La Roche, published 2024):
Like-named read-outs stand apart in the source and are kept apart here.

Key:
[1] = target: T1, human NKG2D expressed on cells (human, UniProt P26718 1-216); assay: flow cytometry on NK92 cells, PE anti-human Fc secondary antibody
T1 construct: the cell type is named under assay; also called NKG2D on NK92 cells; HEK293T human NKG2D
T1 chain: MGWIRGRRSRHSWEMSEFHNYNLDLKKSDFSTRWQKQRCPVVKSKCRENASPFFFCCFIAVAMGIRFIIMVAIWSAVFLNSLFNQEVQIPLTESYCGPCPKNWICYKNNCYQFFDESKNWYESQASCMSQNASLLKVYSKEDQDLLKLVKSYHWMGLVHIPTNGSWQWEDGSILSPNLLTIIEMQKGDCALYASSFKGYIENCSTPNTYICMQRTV

[2] = target: T1, human NKG2D expressed on cells; assay: flow cytometry on NKG2D-positive NK92 cells, anti-human Fc secondary antibody
[3] = target: T1, human NKG2D expressed on cells; assay: as above
Procedure: (§1) Viability of NK92 cells or tumor cells (MKN-45, LS180) was checked and cells were re-suspended and adjusted to a density of 1 mio cells/ml. 100 μl per well of this cell suspension (containing 0.1 mio cells) were seeded into a 96 well round bottom plate. The plate was centrifuged for 4 min at 400×g and the supernatant was removed. Then 40 μl of the diluted antibodies or FACS buffer were added to the cells and incubated for 30 min at 4° C. After the incubation the cells were washed twice with 150 μl FACS buffer per well. […] The cells were incubated for an additional 30 min at 4° C. To remove unbound antibody, the cells were washed again twice with 150 μl per well FACS buffer. To fix the cells, 100 μl of FACS buffer containing 1% PFA were added to the wells. Before measuring, the cells were re-suspended in 150 μl FACS buffer. The fluorescence was measured using a BD flow cytometer.

[4] = target: T2, CEA expressed on LS180 tumor cells (human, UniProt P06731 35-685); assay: flow cytometry on CEA-positive LS180 cells, anti-human Fc secondary antibody
T2 construct: whole, on cells; also called carcinoembryonic antigen; CEACAM5
T2 sequence (looked up): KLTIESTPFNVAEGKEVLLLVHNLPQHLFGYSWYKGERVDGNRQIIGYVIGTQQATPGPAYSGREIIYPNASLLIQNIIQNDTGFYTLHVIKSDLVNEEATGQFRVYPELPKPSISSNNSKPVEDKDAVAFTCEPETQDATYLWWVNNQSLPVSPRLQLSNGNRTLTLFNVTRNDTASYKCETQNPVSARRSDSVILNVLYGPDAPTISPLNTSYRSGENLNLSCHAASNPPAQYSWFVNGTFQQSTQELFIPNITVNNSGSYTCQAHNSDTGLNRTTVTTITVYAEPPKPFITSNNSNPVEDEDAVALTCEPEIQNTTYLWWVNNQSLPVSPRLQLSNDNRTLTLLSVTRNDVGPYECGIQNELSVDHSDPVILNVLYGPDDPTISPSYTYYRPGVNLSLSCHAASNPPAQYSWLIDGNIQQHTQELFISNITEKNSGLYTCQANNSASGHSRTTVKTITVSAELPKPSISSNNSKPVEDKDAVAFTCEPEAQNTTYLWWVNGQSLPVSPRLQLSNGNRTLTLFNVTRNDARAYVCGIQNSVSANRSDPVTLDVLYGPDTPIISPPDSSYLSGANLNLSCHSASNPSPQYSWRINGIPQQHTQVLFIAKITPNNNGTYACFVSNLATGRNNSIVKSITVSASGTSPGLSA
Procedure: as §1

[5] = target: T2, CEA expressed on LS180 tumor cells; assay: as above; remark: listed apart in the source
Procedure: as §1

[6] = target: T3, mono huNKG2D ECD Fc kh avi (human, UniProt P0DOX5 223-449 = IgG part, biotinylated at the avi-tag); assay: SPR ProteOn; antigen on NLC chip, Fab analyte
T3 construct: Monovalent human NKG2D ECD fused to the C-terminus of an avi-tagged human IgG1 Fc knob chain, paired with an empty Fc hole chain
Procedure: (§2) This incubation step was repeated once with 25 ml of a 5 mM MgSO₄ solution. The supernatants of both incubation steps were pooled, filtered and loaded on an IMAC column (His[…]™, GE Healthcare). Subsequently, the column was washed with 40 ml washing buffer (500 mM NaCl, 20 mM imidazole, 20 mM NaH2PO₄ pH 7.4). After the elution (500 mM NaCl, 500 mM imidazole, 20 mM NaH₂PO₄ pH 7.4) the eluate was re-buffered using PD10 columns (GE Healthcare).
(§3) Immobilization of recombinant antigens (ligand): Antigens were diluted with PBST (10 mM phosphate, 150 mM sodium chloride pH 7.4, 0.005% TWEEN® (polysorbate) 20) to 10 μg/ml, then injected at 30 μl/minute at varying contact times in vertical orientation for immobilization. […] Buffer (PBST) was injected along the sixth channel to provide an “in-line” blank for referencing. Association rate constants (kₒₙ) and dissociation rate constants (koff) were calculated using a simple one-to-one Langmuir binding model in PROTEON™ Manager v3.1 software by simultaneously fitting the association and dissociation sensorgrams. The equilibrium dissociation constant (KD) was calculated as the ratio koff/kₒₙ. Cross-reactivity of clones 5C5 and 13C6 to cynomolgus NKG2D, i.e. binding to di cyNKG2D ECD Fc avi, was assessed on IgG level (see Example 9).

di huNKG2D ECD Fc avi = target: T4, di huNKG2D ECD Fc avi (human, biotinylated at the avi-tag); assay: SPR ProteOn; antigen on NLC chip, Fab analyte
T4 construct: Dimeric fusion of human NKG2D ECD to the C-terminus of an avi-tagged human IgG1 Fc
Procedure: as §2, §3

[7] = target: T1, human NKG2D expressed on cells; assay: flow cytometry on NK92 cells, PE anti-human Fc secondary antibody
Procedure: The anti-NKG2D antibodies P1AE4980, C26 and ADI27743 from Example 21 were tested for binding to NKG2D on NK92 cells.
Viability of NK92 cells was checked and cells were re-suspended and adjusted to a density of 1.5 mio cells/ml. 100 μl of this cell suspension (containing 0.15 mio cells) were seeded into a 96 well round bottom plate. The plate was centrifuged for 4 min at 400×g and the supernatant was removed. Then 40 μl of the diluted antibodies or FACS buffer were added to the cells and incubated for 30 min at 4° C. After the incubation the cells were washed twice with 150 μl FACS buffer per well. […] The cells were incubated for an additional 30 min at 4° C. To remove unbound antibody the cells were washed again twice with 150 μl per well FACS buffer. For the measurement, the cells were re-suspended in 150 μl FACS buffer. The fluorescence was measured using a BD flow cytometer.

B1: bispecific NKG2D×CEA antibody in M format, ADI27743 / huA5B7 (bispecific antibody, human IgG1, kappa, L234A L235A)
heavy 1: not shown
light 1: QVQLQQWGAGLLKPSETLSLTCAVYGGSFSGYYWSWIRQPPGKGLEWIGEIDHSGSTNYNPSLKSRVTISVDTSKNQFSLKLSSVTAADTAVYYCARARGPWSFDPWGQGTLVTVSSASVAAPSVFIFPPSDEQLKSGTASVVCLLNNFYPREAKVQWKVDNALQSGNSQESVTEQDSKDSTYSLSSTLTLSKADYEKHKVYACEVTHQGLSSPVTKSFNRGEC
heavy 2: not shown
light 2: EIVLTQSPATLSLSPGERATLSCRASSSVTYIHWYQQKPGQAPRSWIYATSNLASGIPARFSGSGSGTDFTLTISSLEPEDFAVYYCQHWSSKPPTFGQGTKLEIKRTVAAPSVFIFPPSDRKLKSGTASVVCLLNNFYPREAKVQWKVDNALQSGNSQESVTEQDSKDSTYSLSSTLTLSKADYEKHKVYACEVTHQGLSSPVTKSFNRGEC
notes: also called ADI27743 bispecific
Q: Does B1 bind [1]?
A: binds

B2: NKG2D×CEA bispecific antibody, anti-NKG2D 320 / anti-CEA B9, J format (bispecific antibody, V domains shown)
VH 1: EVQLLESGGGLVQPGGSLRLSCATSGFTFSDYAMSWVRQAPGKGLEWVSYNSFSVGSTDYADSVKGRFTISRDNSKNTLYLQMNSLRAEDTAVYYCSKHSGNYYTGPFHYWGQGTLVTVSS
VL 1: DIQLTQSPSFLSASVGDRVTITCRASQGISSYLAWYQQKPGKAPKLLIYAASSLESGVPSRFSGSGSGTDFTLTISSLQPEDFATYYCQQSYSTPITFGQGTRLEIK
VH 2: VQLVESGGGLVQPGRSLRLSCAASGFTVSSYWMHWVRQAPGKGLEWVGFIRNKANGGTTEYAASVKGRFTISRDDSKNTLYLQMNSLRAEDTAVYYCARDRGLRFYFDYWGQGTTVTVSS
VL 2: QAVLTQPASLSASPGASASLTCTLRRGINVGAYSIYWYQQKPGSPPQYLLRYKSDSDKQQGSGVSSRFSASKDASANAGILLISGLQSEDEADYYCMIWHSGASAVFGGGTKLTVL
notes: also called format J (320); tetravalent construct J
Q: How did the “EC50 (read off the curve)” value [2] turn out when B2 was run?
A: ~6 nM

B3: NKG2D×CEA bispecific antibody, anti-NKG2D 395 (C50S) / anti-CEA B9, I format (bispecific antibody, V domains shown)
VH 1: QEQLEQSGGGLVTPGGSLKLCCTASGFDFNTFWMTWVRQAPGKGLEWIGSIHGGSGSRDYASWVNGRFTLSRDIDQSTACLQVNSLTAADTAMYYCARPGYRSWSKTFDLWGQGTMVTVSS
VL 1: DIQMTQSPSSLSASVGDRVTITCRASQDISGALNWYQQKPGKAPNLLIYAASSLQSGVPSRFSGSGSGTDYTLTISSLQPEDFATYYCQQANSFPLTFGGGTKVEIK
VH 2: B2 VH 2
VL 2: B2 VL 2
notes: also called bivalent I format
Q: Which “EC50 (read off the curve)” value [3] does the source give for B3 here?
A: ~2 nM

B4: anti-CEA antibody B9 (IgG) (antibody, V domains shown)
VH: B2 VH 2
VL: B2 VL 2
notes: IgG
Q: How did the “EC50 (read off the curve)” value [4] turn out when B4 was run?
A: ~2 nM

Q: What about the “EC50 (read off the curve)” value [5] of the same binder?
A: ~2 nM

B5: NKG2D×CEA bispecific antibody, anti-NKG2D 320 / anti-CEA B9, L format (bispecific antibody, V domains shown)
VH 1: B2 VH 1
VL 1: B2 VL 1
VH 2: B2 VH 2
VL 2: B2 VL 2
notes: also called format L (320)
Q: With B5 as the binder, how does the “EC50 (read off the curve)” value [4] read?
A: ~10 nM

B6: NKG2D×CEA bispecific antibody, anti-NKG2D 320 / anti-CEA B9, I format (bispecific antibody, V domains shown)
VH 1: B2 VH 1
VL 1: B2 VL 1
VH 2: B2 VH 2
VL 2: B2 VL 2
notes: also called format I (320); I format with antibody 320
Q: With B6 as the binder, how does the “EC50 (read off the curve)” value [2] read?
A: ~10 nM

B7: anti-NKG2D clone 13C6 Fab (Fab, V domains shown)
VH: EVQLVQSGAEVKKPGESLKISCKGSGYSFTSYWIGWVRQMPGKGLEWMGIIYPGDSDTRYSPSFQGQVTISADKSISTAYLQWSSLKASDTAMYYCARLYPVGVYFDYWGQGTLVTVSS
VL: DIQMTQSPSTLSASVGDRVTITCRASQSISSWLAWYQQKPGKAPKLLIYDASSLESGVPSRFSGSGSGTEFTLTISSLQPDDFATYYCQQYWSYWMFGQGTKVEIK
notes: Phage-display Fab purified from E. coli by IMAC (Flag-tagged)
Q: What does the source list for B7?
A: Kd [6]: 79 nM; koff [6]: 0.00096 s⁻¹; kon [6]: 12000 M⁻¹ s⁻¹; Kd (di huNKG2D ECD Fc avi): 74 nM; koff (di huNKG2D ECD Fc avi): 0.0007 s⁻¹; kon (di huNKG2D ECD Fc avi): 9500 M⁻¹ s⁻¹

B8: anti-NKG2D antibody C26 IgG (PG LALA) (antibody, V domains shown)
VH: QVQLQQWGAGLLKPSETLSLTCAVYGGSFSGYYWSWIRQPPGKGLEWIGEIDHSGSTNYNPSLKSRVTISVDTSKNQFSLKLSSVTAADTAVYYCARARGPWSFDPWGQGTLVTVSS
VL: DIQMTQSPSTLSASVGDRVTITCRASQSISSWLAWYQQKPGKAPKLLIYKASSLESGVPSRFSGSGSGTEFTLTISSLQPDDFATYYCQQYGSFPITFGGGTKVEIKR
notes: Human IgG1 with PGLALA; variable domains from WO 2018/148445
Q: Does B8 bind [7]?
A: binds

B9: anti-NKG2D antibody ADI27743 IgG (PG LALA) (antibody, V domains shown)
VH: B8 VH
VL: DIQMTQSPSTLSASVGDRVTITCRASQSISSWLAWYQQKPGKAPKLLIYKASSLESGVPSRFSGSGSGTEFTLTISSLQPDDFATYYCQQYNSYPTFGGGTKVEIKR
notes: as for B8
Q: Does B9 bind [7]?
A: binds

B10: anti-NKG2D clone 5C5 Fab (Fab, V domains shown)
VH: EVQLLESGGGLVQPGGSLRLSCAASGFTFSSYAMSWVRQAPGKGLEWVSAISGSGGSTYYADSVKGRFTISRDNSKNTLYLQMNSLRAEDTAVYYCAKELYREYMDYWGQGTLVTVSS
VL: SSELTQDPAVSVALGQTVRITCQGDSLRSYYASWYQQKPGQAPVLVIYGKNNRPSGIPDRFSGSSSGNTASLTITGAQAEDEADYYCNSRDSFSIHQNVFGGGTKLTVL
notes: as for B7
Q: Which results are given for B10?
A: Kd [6]: 15 nM; koff [6]: 0.0055 s⁻¹; kon [6]: 360000 M⁻¹ s⁻¹; Kd (di huNKG2D ECD Fc avi): 22 nM; koff (di huNKG2D ECD Fc avi): 0.0056 s⁻¹; kon (di huNKG2D ECD Fc avi): 250000 M⁻¹ s⁻¹

B11: anti-NKG2D antibody P1AE4980 (IgG) (antibody, V domains shown)
VH: QEQLVQSGAEVKKPGESLKISCKGSGFDFNTFWMTWVRQMPGKGLEWMGSIHGGSGSRDYSPSFQGQVTISADIDQSTAYLQWSSLKASDTAMYYCARPGYRSWSKTFDLWGQGTTVTVSS
VL: B3 VL 1
notes: Tested as IgG beside C26 and ADI27743 (human IgG1 PGLALA)
Q: Does B11 bind [7]?
A: binds
